Reference: patent publication US20090291081A1 (AbbVie / Abbott, published 2009)
Numbering of substitutions follows the chain as printed. Several values for one entry are separate records, joined by “and”; a condition that tells them apart may be missing. Equal entries are not always repeated. Values belong to the binder of their own block, whether it stands above or below them.

What was measured:
[1] = target: human IL-1β (human, UniProt P01584 117-269); assay: cell-based or functional assay
[2] = target: T1, human IL-1β (human, UniProt P01584 117-269); assay: IC50 column of Table 63; receptor binding assay presumed
T1 construct: antigen of the ABT2 dAbs; also called hIL-1β; IL-1 beta

B1: ABT2-65-17/ABT1-122-511 hu IgG1/K wt (bispecific antibody, V domains shown)
VH: EVQLLESGGGLVQPGGSLRLSCVASGFTFEDYQMGWVRQAPGKGLEWVSSISAMGNRTYYADSVKGRFTISRDDSKNTLYLQMNSLRAEDTAVYYCAQNLVRLGRSRWMFDYWGQGTLVTVSS
VL: DIQMTQSPSSLSASVGDRVTITCRASQPIWTELNWYQQKPGKAPKLLIYGSSSLQRGVPSRFSGSGSGTDFTLTISSLQPEDFATYYCKQFAYFPATFGQGTKVEIKR
IL-1β IC50 [1]: 0.1 nM and 0.16 nM

B4: ABT2-65-171 (other)
VH: B1 VH with V23A, G104N, R107Q
notes: VH dAb
IC50 [2]: 7.5 nM

B7: ABT2-65-174 (other)
VH: B1 VH with V23A, L103F, G104K, R105K, S106T, R107Q
notes: VH dAb
IC50 [2]: 10 nM

B10: ABT2-65-159 (other)
VH: B1 VH with V23A, Q98E, L103V, G104S, R105K, S106A
notes: VH dAb
IC50 [2]: 5 nM

B11: ABT2-65-176 (other)
VH: B1 VH with V23A, N56S, Q98E, R102K, L103V, G104A, S106G
notes: VH dAb
IC50 [2]: 5 nM

B14: ABT2-65-169 (other)
VH: B1 VH with V23A, Q98E, R102N, L103W, G104R, S106G, R107S
notes: VH dAb
IC50 [2]: 9 nM

B15: ABT2-65-10 (other)
VH: VQLSESGGGLVQPGGSLRLSCAASGFTFTEYNMGWVRQAPGKGLEWVSSISAMGNRTYYADSVKGRFTISRDDSKNTLYLQMNSLRAEDTAVYYCANNLVRTQSKMWMFDYWGQGTLVTVSS
notes: VH dAb
IC50 [2]: 20 nM

Now from value to binder:

IL-1β IC50 [1]: 0.01 nM and 0.009 nM
B2: ABT2-108-620x/ABT1-122-513 huIgG1/K w (bispecific antibody, V domains shown)
VH: EVQLLESGGGLVQPGGSLRLSCAASGFTFAEESWMWVRQAPGKGLEWVSRIGQDGKNTYYREDVKGRFTISRDNSKNTLYLQMNSLRAEDTAVYYCAKYTGRIMGHHLFDYWGQGTLVTVSS
VL: B1 VL with S52G, L54R

IC50 [2]: 10 nM
B3: ABT2-65-175 (other)
VH: B1 VH with V23A, Q98E, L103I, G104A, R105G, S106D
notes: VH dAb

IC50 [2]: 10 nM
B5: ABT2-65-170 (other)
VH: B1 VH with V23A, Q98E, L103V, G104L, R105L, S106N, R107K
notes: VH dAb

IC50 [2]: 30 nM
B6: ABT2-65-173 (other)
VH: B1 VH with V23A, L103F, G104R, R105A, S106K, R107E
notes: VH dAb

IC50 [2]: 20 nM
B8: ABT2-65-177 (other)
VH: B1 VH with V23A, L103F, G104K, R105V, S106L, R107Q
notes: VH dAb

IC50 [2]: 6 nM
B9: ABT2-65-172 (other)
VH: B1 VH with V23A, Q98E, L103W, G104K, R105K, S106G, R107S
notes: VH dAb

IC50 [2]: 30 nM
B12: ABT2-65-167 (other)
VH: B1 VH with V23A, L103W, G104K, R105K, S106N, R107E
notes: VH dAb

IC50 [2]: 30 nM
B13: ABT2-65-168 (other)
VH: B1 VH with V23A, L103W, G104K, R105L, S106E, R107S
notes: VH dAb

IC50 [2]: 70 nM
B16: ABT2-108 (other)
VH: EVQLLESGGGLVQPGGSLRLSCAASGFTFAEYTMMWVRQAPGKGLEWVSRIGQDGKNTYYADSVKGRFTISRDNSKNTLYLQMNSLRAEDTAVYYCAKYTGRVGVHHLFDYWGQGTLVTSS

IC50 [2]: 770 nM
B17: ABT2-42 (other)
VL: DIQMTQSPSSLSASVGDRVTITCRASQYIEKWLTWYQQKPGKAPTLLIYRGSLLQSGVPSRFSGSGSGTDFTLTISSLQPEDFATYYCQQTEYWPFTFGQGTKVEIKR

IC50 [2]: 390 nM
B18: ABT2-46 (other)
VL: B17 VL with Y28S, E30I, K31E, T34S, T45K, G51T, L53V, T91N, Y93F
